We go through 2 substances from US20030082194A1, “Compositions and methods for diagnosis and therapy of malignant mesothelioma” (priority 2000, published 2003).

The subject of data set [1] is WT1. The experiment in a line: Immunogenicity of WT1 protein immunization with MPL-SE, multiple dose titration in mice (Table 51). The conditions noted are these: MPL-SE adjuvant; doses 25 μg, 100 μg to 1000μg WT1 protein; female C57/B6 mice. The format is in vivo, mouse. An excerpt: (§1) The purpose of this example is to analyze the immunogenicity and potential systemic histopathological and toxicological effects of WT1 protein immunization in a multiple dose titration in mice.
(§2) The experimental design for immunization of mice with WT1 protein is outlined in Table 51.

Data set [2] in a line: Systemic histopathological and toxicological effects of WT1 protein immunization in mice. The format is in vivo, mouse.
Source text: as §1, §2
Special emphasis was put on evaluation of potential hematopoietic toxicity. The myeloid/erythroid ratio in sternum and femur marrow was normal.

For data set [3] the following is noted: even on an outpatient basis; cited from earlier work.
Where [4] appears, read: mice immunized with WT1 protein.

In the case of “WT1 protein: WT1 protein used for vaccination of mice with MPL-SE as adjuvant”, in data set [1], the WT1-specific antibody response entry is recorded as “elicited a strong WT1-specific antibody response” and the “cellular T-cell responses” value is “cellular T-cell responses”. The “histological evidence for toxicity in tissues” value in data set [2] (adrenal gland, brain, colon, heart, kidney, liver, lung, marrow, spleen and other listed tissues) is “No histological evidence for toxicity”. Besides, in data set [2] (setting [4]), the “blood cell counts and blood chemistry (BUN, creatinine, bilirubin, albumin, globulin)” value is given as “within the normal range”; the “myeloid/erythroid ratio in sternum and femur marrow” value is given as “normal”. Besides, in data set [2] (mice, multiple dose titration), the “systemic histopathological or toxicological effects of immunization” value is given as “No systemic histopathological or toxicological effects”.

As to monophosphoryl lipid A [MPL], the “dose known to be safe for human use” value in data set [3] is given as 100 μg/m^2.
